Measured values: PMC8195987, “Structural basis for plazomicin antibiotic action and resistance” (Communications Biology, 2021)

Molecular target: the molecule itself
Experiment: crystal structure; AAC(2′)-Ia at 10 mg/mL with 10 mM acetyl-CoA and 10 mM plazomicin, sitting-drop vapor diffusion at 4 °C, reservoir 0.2 M LiCl and 40% (v/v) MPD; product-bound state (acetylated plazomicin and CoA)

B1: AAC(2′)-Ia from Providencia stuartii (enzyme)
chain: MGIEYRSLHTSQLTLSEKEALYDLLIEGFEGDFSHDDFAHTLGGMHVMAFDQQKLVGHVAIIQRHMALDNTPISVGYVEAMVVEQSYRRQGIGRQLMLQTNKIIASCYQLGLLSASDDGQKLYHSVGWQIWKGKLFELKQGSYIRSIEEEGGVMGWKADGEVDFTASLYCDFRGGDQW
notes: AAC(2′)-Ia, aminoglycoside 2′-N-acetyltransferase of Providencia stuartii; synthesized aac(2′)-Ia gene cloned in pET-15b between NdeI and BamHI, N-terminal HIS-tag followed by a thrombin cleavage site; the tag was removed with thrombin; Homodimer in the crystal, each unit with acetylated plazomicin and CoA in the active site; also called aminoglycoside 2′-N-acetyltransferase; AAC(2′)-Ia …
B1: binds.
